Blank lines part the entries; values can stand above or below the binder they belong to.
What was measured:
[1] = target: T1, human CD137 expressed on Jurkat cells (human, UniProt Q07011 24-255); assay: cell-based or functional assay
[2] = target: T1, human CD137 expressed on Jurkat cells; assay: cell-based or functional assay; remark: listed apart in the source
[3] = target: T1, human CD137 expressed on Jurkat cells; assay: cell-based or functional assay; remark: listed apart in the source
[4] = target: human PDL1-Fc chimeric protein (human, UniProt Q9NZQ7 19-238, limits assumed); assay: SPR T200, antigen-Fc captured, molecule as analyte
Procedure: (§1) Affinity to PDL1 of the different species was determined by SPR measurements using a Biacore T200 device (GE Healthcare). An antibody specific for the Fc region of human IgGs was immobilized on a sensor chip (CM5 sensor chip, GE Healthcare) by amine-coupling. For all formats, with the exception of the Fc containing Morrison formats, PDL1-Fc chimeric protein from different species were captured by the immobilized antibody. Three-fold serial dilutions of the molecules specific for PDL1 (0.12-90 nM) were injected into the flow cells for three minutes and dissociation was monitored for 10 minutes. After each injection cycle, surfaces were regenerated with one injection of a 3 M MgCl₂ solution. The apparent dissociation (kd) and association (kₐ) rate constants and the apparent dissociation equilibrium constant (KD) were calculated using one-to-one Langmuir binding model. Affinity to CD137 of the different species was determined using the identical setup as for PDL1 with the exception that CD137-Fc chimeric proteins from different species were captured by the immobilized antibody.

[5] = target: T2, Fc tagged human CD137 (R&D Systems, cat. 838-4B-100) (human, UniProt Q07011 24-186); assay: SPR T200, antigen-Fc captured, molecule as analyte
T2 construct: also called CD137 Fc chimera; human CD137-Fc chimeric protein
Procedure: as §1

[6] = target: T3, mouse Fc-tagged mouse CD137 (R&D Systems, cat. 937-4B-050) (mouse, UniProt P20334 24-187); assay: SPR T200, antigen-Fc captured, molecule as analyte
T3 construct: also called mouse CD137-Fc chimeric protein
T3 sequence (looked up): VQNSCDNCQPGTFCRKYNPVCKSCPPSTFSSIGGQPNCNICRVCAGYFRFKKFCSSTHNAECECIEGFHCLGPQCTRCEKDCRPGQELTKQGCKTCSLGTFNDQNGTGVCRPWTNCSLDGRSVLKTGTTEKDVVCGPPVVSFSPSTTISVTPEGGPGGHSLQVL
Procedure: as §1

[7] = target: cynomolgus PDL1-Fc chimeric protein (cynomolgus, UniProt G7PSE7 19-238); assay: SPR T200, antigen-Fc captured, molecule as analyte
Procedure: as §1

[8] = target: T4, human PDL1 extracellular domain (human, UniProt Q9NZQ7 19-238); assay: SPR T200, Morrison format captured, ECD analyte
T4 construct: extracellular domain; Analyte for the Fc containing Morrison formats
Procedure: as §1
The Fc containing formats were directly captured by the antibody specific for the Fc region of human IgGs. Two-fold serial dilutions of PDL1 extracellular domain or CD137 extracellular domain ranging from 90 to 0.35 nM were tested for binding to the IgG captured on the biosensor chip. After each injection cycle, surfaces were regenerated with one injection of a 3 M MgCl2 solution.

Chain of cynomolgus PDL1-Fc chimeric protein (G7PSE7 entry or part of it mutant): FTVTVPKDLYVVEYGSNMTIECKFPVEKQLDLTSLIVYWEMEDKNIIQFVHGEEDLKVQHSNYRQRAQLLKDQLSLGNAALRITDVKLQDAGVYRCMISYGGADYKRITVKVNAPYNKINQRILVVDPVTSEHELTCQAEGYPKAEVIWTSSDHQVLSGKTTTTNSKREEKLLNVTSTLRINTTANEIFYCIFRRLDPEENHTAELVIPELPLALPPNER

B3: PRO830 (33-03-G02 CDR, scFv) (scFv)
scFv: DIQMTQSPSSLSASVGDRVTITCQASQSINDYLAWYQQKPGKAPKLLIYKASTLASGVPSRFSGSGSGTDFTLTISSLQPEDFATYYCQQGYIITDIDNVFGTGTKVTVLGGGGGSGGGGSGGGGSGGGGSQVQLQESGPGLVKPSETLSLTCKVSGFSFSSGYDMCWIRQPPGKGLEWIGCVVAGSVDITYYASWAKGRVTISVDSSKNQFSLKLSSVTAADTAVYYCARKDAYSDAFNLWGQGTLVTVSS
Kd [7]: 0.094 nM | koff [7]: 0.0002 s⁻¹ | kon [7]: 2.2e+06 M⁻¹ s⁻¹ | Kd [4]: 0.076 nM | koff [4]: 0.00016 s⁻¹ | kon [4]: 2.1e+06 M⁻¹ s⁻¹

B5: PRO1013 (37-20-B03 CDR, VH1, scFv) (scFv)
scFv: DIQMTQSPSSLSASVGDRVTITCQASQSIGTYLAWYQQKPGKAPKLLIYRAFILASGVPSRFSGSGSGTDFTLTISSLQPEDFATYYCQSNFYSDSTTIGPNAFGTGTKVTVLGGGGGSGGGGSGGGGSGGGGSQVQLVQSGAEVKKPGASVKVSCKASGFSFNSDYWIYWVRQAPGQGLEWMGSIYGGSSGNTQYASWAQGRVTMTRDTSISTAYMELSSLRSEDTAVYYCARGYVDYGGATDLWGQGTLVTVSS
notes: its row bears no clone label
Kd [7]: 0.053 nM | koff [7]: 0.00032 s⁻¹ | kon [7]: 5.9e+06 M⁻¹ s⁻¹ | Kd [4]: 0.045 nM | koff [4]: 0.00027 s⁻¹ | kon [4]: 6e+06 M⁻¹ s⁻¹

B7: PRO966 (= PRO1052) (38_27_C05 sc01 scDb-i/33-03-G02 sc01 scDb-o/19-01-H04-sc03 scFv) (other)
chain: DIQMTQSPSSLSASVGDRVTITCQASQSINDYLAWYQQKPGKAPKLLIYKASTLASGVPSRFSGSGSGTDFTLTISSLQPEDFATYYCQQGYIITDIDNVFGTGTKVTVLGGGGGSQVQLQESGPGLVKPSETLSLTCKVSGFSFNNDYDMCWIRQPPGKGLEWIGCIDTGDGSTYYASWAKGRVTISVDSSKNQFSLKLSSVTAADTAVYYCAREAASSSGYGMGYFDLWGQGTLVTVSSGGGGSGGGGSGGGGSGGGGSIQMTQSPSSLSASVGDRVTITCQSSQSVYDNNWLAWYQQKPGKAPKLLIYRASNLASGVPSRFSGSGSGTDFTLTISSLQPEDFATYYCQGTYLSSNWYWAFGTGTKVTVLGGGGGSQVQLQESGPGLVKPSETLSLTCKVSGFSFSSGYDMCWIRQPPGKGLEWIGCVVAGSVDITYYASWAKGRVTISVDSSKNQFSLKLSSVTAADTAVYYCARKDAYSDAFNLWGQGTLVTVSSGGGGSGGGGSIQMTQSPSSLSASVGDRVTITCQSSESVYSNNQLSWYQQKPGQPPKLLIYDASDLASGVPSRFSGSGSGTDFTLTISSLQPEDFATYYCAGGFSSSSDTAFGGGTKLTVLGGGGGSGGGGSGGGGSGGGGSEVQLVESGGGLVQPGGSLRLSCAASGFSLSSNAMGWVRQAPGKGLEYIGIISVGGFTYYASWAKGRFTISRDNSKNTVYLQMNSLRAEDTATYFCARDRHGGDSSGAFYLWGQGTLVTVSS
notes: Trispecific scDb-scFv
Kd [4]: 0.083 nM | koff [4]: 0.00014 s⁻¹ | kon [4]: 1.6e+06 M⁻¹ s⁻¹ | Kd [5]: 2.2 nM | koff [5]: 0.0022 s⁻¹ | kon [5]: 1e+06 M⁻¹ s⁻¹

The next lines start with the values.

EC50 NFkB-luciferase, CHO-PDL1 cells, 6 h, + HSA [1]: 0.0709 µg/mL | Top of curve fit, NFkB-luciferase, CHO-PDL1 cells, 6 h, + HSA [1]: 40.1 | max. activation, NF-kB reporter gene, CHO-PD-L1, 24h [2]: 36.2% | rel. IC50 (urelumab/test), NF-kB reporter gene, CHO-PD-L1, 24h [2]: 0.64 ratio | EC50 NFkB-luciferase, CHO-PDL1 cells, 24 h, + HBA (so in the source) [3]: 0.121 µg/mL | Top of curve fit, NFkB-luciferase, CHO-PDL1 cells, 24 h, + HBA (so in the source) [3]: 20.5 | Kd [4]: 0.16 nM | koff [4]: 0.00019 s⁻¹ | kon [4]: 1.2e+06 M⁻¹ s⁻¹ | Kd [5]: 1.2 nM | koff [5]: 0.0021 s⁻¹ | kon [5]: 1.7e+06 M⁻¹ s⁻¹
B1: PRO1058 (38_27_C05 scDb-i/33-03-G02 sc01 scDb-o/mxr HSA (23-13-A01-sc03, sk17sh4)) (other)
chain: DIQMTQSPSSLSASVGDRVTITCQASQSINDYLAWYQQKPGKAPKLLIYKASTLASGVPSRFSGSGSGTDFTLTISSLQPEDFATYYCQQGYIITDIDNVFGTGTKVTVLGGGGGSQVQLQESGPGLVKPSETLSLTCKVSGFSFNNDYDMCWIRQPPGKGLEWIGCIDTGDGSTYYASWAKGRVTISVDSSKNQFSLKLSSVTAADTAVYYCAREAASSSGYGMGYFDLWGQGTLVTVSSGGGGSGGGGSGGGGSGGGGSIQMTQSPSSLSASVGDRVTITCQSSQSVYDNNWLAWYQQKPGKAPKLLIYRASNLASGVPSRFSGSGSGTDFTLTISSLQPEDFATYYCQGTYLSSNWYWAFGTGTKVTVLGGGGGSQVQLQESGPGLVKPSETLSLTCKVSGFSFSSGYDMCWIRQPPGKGLEWIGCVVAGSVDITYYASWAKGRVTISVDSSKNQFSLKLSSVTAADTAVYYCARKDAYSDAFNLWGQGTLVTVSSGGGGSGGGGSVVMTQSPSSLSASVGDRVTITCQASQIISSRSAWYQQKPGQPPKLLIYQASKLASGVPSRFSGSGSGTDFTLTISSLQPEDFATYYCQCTYIDSNFGAFGGGTKLTVLGGGGGSGGGGSGGGGSGGGGSEVQLVESGGGLVQPGGSLRLSCAASGFSFSSSYWICWVRQAPGKGLEWVGCVFTGDGTTYYASWAKGRFTISRDNSKNTVYLQMNSLRAEDTATYFCARPVSVYYYGMDLWGQGTLVTVSS
notes: Trispecific scDb-scFv; also called PR01058

Kd [6]: 420 nM | koff [6]: 0.19 s⁻¹ | kon [6]: 450000 M⁻¹ s⁻¹ | Kd [4]: 0.028 nM | koff [4]: 7.6e-05 s⁻¹ | kon [4]: 2.8e+06 M⁻¹ s⁻¹ | Kd [5]: 3.4 nM | koff [5]: 0.00084 s⁻¹ | kon [5]: 250000 M⁻¹ s⁻¹
B2: PRO1134 (38-02-A04 sc01 scDb-i/33_03_G02 sc07 GL VH3 scDb-o) (bispecific antibody)
chain: DIQMTQSPSSLSASVGDAVTITCQASQSINDYLAWYQQKPGKSPKLLIYKASTLASGVPSRFSGSGSGTDFTLTISSLQPEDFATYYCQQGYIITDIDNVFGTGTKVTVLGGGGGSQVQLQESGPGLVKPSETLSLTCKVSGFSFSNSYWICWIRQPPGKGLEWIGCTFVGSSDSTYYANWAKGRVTISVDSSKNQFSLKLSSVTAADTAVYYCARHPSDAVYGYANNLWGQGTLVTVSSGGGGSGGGGSGGGGSGGGGSIQMTQSPSSLSASVGDRVTITCQASQSINNVLAWYQQKPGKAPKLLIYRASTLASGVPSRFSGSGSGTDFTLTISSLQPEDFATYYCQSSYGNYGDFGTGTKVTVLGGGGGSEVQLVESGGGLVQPGGSLRLSCAASGFSFSSGYDMCWVRQAPGKGLEWVGCVVAGSVDITYYASWAKGRFTISRDNSKNTVYLQMNSLRAEDTATYYCARKDAYSDAFNLWGPGTLVTVSS
notes: scDb

Kd [8]: 0.038 nM | koff [8]: 5e-05 s⁻¹ | kon [8]: 1.3e+06 M⁻¹ s⁻¹
B4: PRO1062 (33-03-G02 sc01 IgG1 HC with 38_27_C05 sc01 scFv, PDL1/CD137(scFv) silent Morrison) (bispecific antibody)
light: DIQMTQSPSSLSASVGDRVTITCQASQSINDYLAWYQQKPGKAPKLLIYKASTLASGVPSRFSGSGSGTDFTLTISSLQPEDFATYYCQQGYIITDIDNVFGTGTKVTVLGTVAAPSVFIFPPSDEQLKSGTASVVCLLNNFYPREAKVQWKVDNALQSGNSQESVTEQDSKDSTYSLSSTLTLSKADYEKHKVYACEVTHQGLSSPVTKSFNRGEC
heavy: QVQLQESGPGLVKPSETLSLTCKVSGFSFSSGYDMCWIRQPPGKGLEWIGCVVAGSVDITYYASWAKGRVTISVDSSKNQFSLKLSSVTAADTAVYYCARKDAYSDAFNLWGQGTLVTVSSASTKGPSVFPLAPSSKSTSGGTAALGCLVKDYFPEPVTVSWNSGALTSGVHTFPAVLQSSGLYSLSSVVTVPSSSLGTQTYICNVNHKPSNTKVDKRVEPKSCDKTHTCPPCPAPEAAGGPSVFLFPPKPKDTLMISRTPEVTCVVVDVSHEDPEVKFNWYVDGVEVHNAKTKPREEQYNSTYRVVSVLTVLHQDWLNGKEYKCKVSNKALGAPIEKTISKAKGQPREPQVYTLPPSREEMTKNQVSLTCLVKGFYPSDIAVEWESNGQPENNYKTTPPVLDSDGSFFLYSKLTVDKSRWQQGNVFSCSVMHEALHNHYTQKSLSLSPGKGGGGSGGGGSIQMTQSPSSLSASVGDRVTITCQASQSINNVLAWYQQKPGKAPKLLIYRASTLASGVPSRFSGSGSGTDFTLTISSLQPEDFATYYCQSSYGNYGDFGTGTKVTVLGGGGGSGGGGSGGGGSGGGGSQVQLQESGPGLVKPSETLSLTCKVSGFSFSNSYWICWIRQPPGKGLEWIGCTFVGSSDSTYYANWAKGRVTISVDSSKNQFSLKLSSVTAADTAVYYCARHPSDAVYGYANNLWGQGTLVTVSS
notes: also called PR01062; Morrison-H

Kd [6]: 510 nM | koff [6]: 0.27 s⁻¹ | kon [6]: 540000 M⁻¹ s⁻¹ | Kd [4]: 0.067 nM | koff [4]: 0.00011 s⁻¹ | kon [4]: 1.7e+06 M⁻¹ s⁻¹ | Kd [5]: 3.7 nM | koff [5]: 0.00075 s⁻¹ | kon [5]: 200000 M⁻¹ s⁻¹
B6: PRO1125 (38-02-A04 scDb-i/33_03_G02 sc02 IF scDb-o) (bispecific antibody)
chain: DIQMTQSPSSLSASVGDRVTITCQASQSINDYLAWYQQKPGKSPKLLIYKASTLASGVPSRFSGSGSGTDFTLTISSLQPEDFATYYCQQGYIITDIDNVFGTGTKVTVLGGGGGSQVQLQESGPGLVKPSETLSLTCKVSGFSFSNSYWICWIRQPPGKGLEWIGCTFVGSSDSTYYANWAKGRVTISVDSSKNQFSLKLSSVTAADTAVYYCARHPSDAVYGYANNLWGQGTLVTVSSGGGGSGGGGSGGGGSGGGGSIQMTQSPSSLSASVGDRVTITCQASQSINNVLAWYQQKPGKAPKLLIYRASTLASGVPSRFSGSGSGTDFTLTISSLQPEDFATYYCQSSYGNYGDFGTGTKVTVLGGGGGSQVQLQESGPGLVKPSETLSLTCKVSGFSFSSGYDMCWVRQPPGKGLEWIACVVAGSVDITYYASWAKGRVTISVDSSKNQFSLKLSSVTAADTAVYFCARKDAYSDAFNLWGQGTLVTVSS
notes: scDb

Reference: patent US20200332015A1 (NAMAB THERAPEUTICS, published 2020)
